Measurements as given in the supplement of paper PMC9112550, “Optimization of the antimicrobial peptide Bac7 by deep mutational scanning” (BMC Biology, 2022).

System: Escherichia coli TOP10
Test: shrunken log2 fold change of peptide-encoding DNA abundance (4.5 h post-induction vs induction); higher = less antimicrobial activity (less host growth inhibition)
Conditions: time post-induction: 4.5 h; library: site-saturation at positions 5, 18, 19, 20
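Also: peptides expressed intracellularly from a pBAD plasmid library in pooled LB shake-flask culture, induced with 0.3% L-arabinose, DNA abundance read by NGS, three biological replicates, DESeq2 with apeglm shrinkage.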

Row | Sequence | shrunken log2 fold change
1 | RRIRGRPPRLPRPRPRPPGPPRP | 0.821
2 | RRIRGRPPRLPRPRPRPPHNPRP | 0.585
3 | RRIRGRPPRLPRPRPRPPILPRP | -0.0529
4 | RRIRGRPPRLPRPRPRPPITPRP | 0.0357
5 | RRIRGRPPRLPRPRPRPPKQPRP | 0.292
6 | RRIRGRPPRLPRPRPRPPLSPRP | 0.897
7 | RRIRGRPPRLPRPRPRPPMKPRP | 0.138
8 | RRIRGRPPRLPRPRPRPPNVPRP | 0.431
9 | RRIRGRPPRLPRPRPRPPPQPRP | 1.55
10 | RRIRGRPPRLPRPRPRPPQDPRP | 0.781
11 | RRIRGRPPRLPRPRPRPPRIPRP | 0.719
12 | RRIRGRPPRLPRPRPRPPVTPRP | 0.728
13 | RRIRGRPPRLPRPRPRPQASPRP | 1.03
14 | RRIRGRPPRLPRPRPRPQDIPRP | -0.398
15 | RRIRGRPPRLPRPRPRPQDNPRP | 0.0555
16 | RRIRGRPPRLPRPRPRPQEAPRP | 0.492
17 | RRIRGRPPRLPRPRPRPQETPRP | -0.0108
18 | RRIRGRPPRLPRPRPRPQFVPRP | 0.0536
19 | RRIRGRPPRLPRPRPRPQGLPRP | 0.335
20 | RRIRGRPPRLPRPRPRPQHAPRP | 0.797
21 | RRIRGRPPRLPRPRPRPQIEPRP | 0.462
22 | RRIRGRPPRLPRPRPRPQIRPRP | 0.808

Row | Sequence | shrunken log2 fold change
23 | RRIRGRPPRLPRPRPRPQKHPRP | 0.982
24 | RRIRGRPPRLPRPRPRPQKLPRP | 0.13
25 | RRIRGRPPRLPRPRPRPQKVPRP | 0.129
26 | RRIRGRPPRLPRPRPRPQLGPRP | 0.649
27 | RRIRGRPPRLPRPRPRPQLSPRP | 0.0797
28 | RRIRGRPPRLPRPRPRPQMYPRP | 0.0854
29 | RRIRGRPPRLPRPRPRPQNMPRP | -0.399
30 | RRIRGRPPRLPRPRPRPQQRPRP | 1.43
31 | RRIRGRPPRLPRPRPRPQSIPRP | 0.108
32 | RRIRGRPPRLPRPRPRPQSQPRP | 0.139
33 | RRIRGRPPRLPRPRPRPQSRPRP | 0.328
34 | RRIRGRPPRLPRPRPRPQSYPRP | 0.113
35 | RRIRGRPPRLPRPRPRPQVAPRP | 0.34
36 | RRIRGRPPRLPRPRPRPQVRPRP | 0.713
37 | RRIRGRPPRLPRPRPRPQYIPRP | -0.27
38 | RRIRGRPPRLPRPRPRPRDGPRP | 1.27
39 | RRIRGRPPRLPRPRPRPRDNPRP | 0.0439
40 | RRIRGRPPRLPRPRPRPRFVPRP | 0.467
41 | RRIRGRPPRLPRPRPRPRGKPRP | 0.341
42 | RRIRGRPPRLPRPRPRPRKAPRP | 0.693
43 | RRIRGRPPRLPRPRPRPRNAPRP | 0.619
44 | RRIRGRPPRLPRPRPRPRNWPRP | 1.35

Row | Sequence | shrunken log2 fold change
45 | RRIRGRPPRLPRPRPRPRPMPRP | 1.51
46 | RRIRGRPPRLPRPRPRPRPYPRP | 0.246
47 | RRIRGRPPRLPRPRPRPRRCPRP | 0.548
48 | RRIRGRPPRLPRPRPRPRRGPRP | 0.813
49 | RRIRGRPPRLPRPRPRPRRMPRP | 0.706
50 | RRIRGRPPRLPRPRPRPRSDPRP | 0.555
51 | RRIRGRPPRLPRPRPRPRSEPRP | 0.29
52 | RRIRGRPPRLPRPRPRPRSFPRP | -0.0397
53 | RRIRGRPPRLPRPRPRPRSGPRP | 0.83
54 | RRIRGRPPRLPRPRPRPRTYPRP | 0.0193
55 | RRIRGRPPRLPRPRPRPRVDPRP | 1.57
56 | RRIRGRPPRLPRPRPRPRVEPRP | 0.432
57 | RRIRGRPPRLPRPRPRPRVWPRP | 0.547
58 | RRIRGRPPRLPRPRPRPRWRPRP | 0.973
59 | RRIRGRPPRLPRPRPRPSAEPRP | 2.33
60 | RRIRGRPPRLPRPRPRPSAHPRP | 1.12
61 | RRIRGRPPRLPRPRPRPSAQPRP | 1.26
62 | RRIRGRPPRLPRPRPRPSCSPRP | 0.295
63 | RRIRGRPPRLPRPRPRPSCYPRP | -0.0977
64 | RRIRGRPPRLPRPRPRPSFNPRP | 0.131
65 | RRIRGRPPRLPRPRPRPSHAPRP | 0.423
66 | RRIRGRPPRLPRPRPRPSKWPRP | -0.158

Row | Sequence | shrunken log2 fold change
67 | RRIRGRPPRLPRPRPRPSLNPRP | 0.105
68 | RRIRGRPPRLPRPRPRPSMHPRP | 0.421
69 | RRIRGRPPRLPRPRPRPSMLPRP | 0.58
70 | RRIRGRPPRLPRPRPRPSMTPRP | 2.35
71 | RRIRGRPPRLPRPRPRPSPRPRP | 0.927
72 | RRIRGRPPRLPRPRPRPSQAPRP | 0.612
73 | RRIRGRPPRLPRPRPRPSSCPRP | 0.316
74 | RRIRGRPPRLPRPRPRPSSIPRP | 0.0764
75 | RRIRGRPPRLPRPRPRPSSPPRP | -0.0496
76 | RRIRGRPPRLPRPRPRPSSVPRP | 0.282
77 | RRIRGRPPRLPRPRPRPSSYPRP | -0.128
78 | RRIRGRPPRLPRPRPRPSTFPRP | 0.112
79 | RRIRGRPPRLPRPRPRPSTKPRP | 0.261
80 | RRIRGRPPRLPRPRPRPSTLPRP | 0.152
81 | RRIRGRPPRLPRPRPRPSYQPRP | -0.0215
82 | RRIRGRPPRLPRPRPRPSYYPRP | 0.118
83 | RRIRGRPPRLPRPRPRPTARPRP | 1.27
84 | RRIRGRPPRLPRPRPRPTCFPRP | 1.14
85 | RRIRGRPPRLPRPRPRPTCTPRP | 0.975
86 | RRIRGRPPRLPRPRPRPTFNPRP | 0.31
87 | RRIRGRPPRLPRPRPRPTHCPRP | 0.433
88 | RRIRGRPPRLPRPRPRPTHVPRP | 0.483

Row | Sequence | shrunken log2 fold change
89 | RRIRGRPPRLPRPRPRPTIEPRP | 0.673
90 | RRIRGRPPRLPRPRPRPTIKPRP | 0.48
91 | RRIRGRPPRLPRPRPRPTINPRP | 0.477
92 | RRIRGRPPRLPRPRPRPTIVPRP | 0.779
93 | RRIRGRPPRLPRPRPRPTMHPRP | 0.715
94 | RRIRGRPPRLPRPRPRPTNCPRP | 0.31
95 | RRIRGRPPRLPRPRPRPTNFPRP | -0.0941
96 | RRIRGRPPRLPRPRPRPTPFPRP | 0.629
97 | RRIRGRPPRLPRPRPRPTPLPRP | 0.747
98 | RRIRGRPPRLPRPRPRPTQWPRP | 0.387
99 | RRIRGRPPRLPRPRPRPTRWPRP | 0.739
100 | RRIRGRPPRLPRPRPRPTTCPRP | 0.849
101 | RRIRGRPPRLPRPRPRPTVCPRP | 0.798
102 | RRIRGRPPRLPRPRPRPTVYPRP | 0.185
103 | RRIRGRPPRLPRPRPRPTWYPRP | 0.159
104 | RRIRGRPPRLPRPRPRPVANPRP | 0.623
105 | RRIRGRPPRLPRPRPRPVDYPRP | -0.0159
106 | RRIRGRPPRLPRPRPRPVEDPRP | 0.0393
107 | RRIRGRPPRLPRPRPRPVEMPRP | 0.556
108 | RRIRGRPPRLPRPRPRPVFRPRP | 0.375
109 | RRIRGRPPRLPRPRPRPVGDPRP | 0.802
